First the molecules themselves.
B1: TPR t1 (parent)
chain: GACCAAUCUGCCCUCAGAGCUCGAGAACAUCUUCGGAUGCAGAGGAGGCAGGCUUCGGUGGCGCGAUAGCGCCAACGUCCUCAACCUCCAAUGCAUCCCACCACAUGAUGAUGCCUGAAGAGCCUUGGUUUUUUG

Variants of B1 are the subject of the data set. The data set is described as follows: polymerase ribozyme fitness, log enrichment relative to wild type (log ratio); higher = more active; in vitro selection for triplet polymerase activity. The procedure, abridged:
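Both subunits of a heterodimeric triplet polymerase ribozyme were given their own mutant library, built by PCR and transcribed. Each library was annealed with a biotinylated primer, the partner subunit and triplets, incubated frozen at −7 °C, and its extended constructs gel-excised, captured on streptavidin beads and amplified by RT-PCR, all in one round done in triplicate. Fitness is the logarithm of genotype enrichment relative to wild-type enrichment, with replicates averaged by inverse-variance weighting. That logarithm is base 2, and Illumina-sequenced genotypes needed ≥10 input reads and ≥1 read per output.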
Take U21C U112G: the “polymerase ribozyme fitness (log ratio)” value was -0.886.

In the case of U21C C101U, the “polymerase ribozyme fitness (log ratio)” value was -0.578.

For the variant U21A C89U G110A U112C, the “polymerase ribozyme fitness (log ratio)” value was -2.24.

As to C22A G44C U112A, the “polymerase ribozyme fitness (log ratio)” value was -3.24.

For U21A U38G C56A, the “polymerase ribozyme fitness (log ratio)” value was -1.66.

As to U21C U54A G93A A111C, the “polymerase ribozyme fitness (log ratio)” value was -0.948.

For C22A G44U C62U U112G, the “polymerase ribozyme fitness (log ratio)” value was -5.2.

For C20U C89U A95U C115U, the “polymerase ribozyme fitness (log ratio)” value was -3.32.

As for U21G G61C, the “polymerase ribozyme fitness (log ratio)” value was -3.98.

Regarding U21A A46G C114G, the “polymerase ribozyme fitness (log ratio)” value was -3.92.

For U21C G71A C101U G117A, the “polymerase ribozyme fitness (log ratio)” value is -2.85.

On to U21C C70U A111C, for which the “polymerase ribozyme fitness (log ratio)” value was -0.344.

On to C22A G23A G35A C82G C89U C104U A111U, for which the “polymerase ribozyme fitness (log ratio)” value was -6.73.

U21G C40G: the “polymerase ribozyme fitness (log ratio)” value is -0.951.

In the case of C20U U112A G120A, the “polymerase ribozyme fitness (log ratio)” value is -0.897.

Turning to C20U G93A, the “polymerase ribozyme fitness (log ratio)” value is -1.32.

As to C22A G63A C94A A100U C115A, the “polymerase ribozyme fitness (log ratio)” value was -5.85.

On to C20U G36A G122A G127C G135U, for which the “polymerase ribozyme fitness (log ratio)” value was -5.15.

Consider C22A C56A U112C, for which the “polymerase ribozyme fitness (log ratio)” value is -2.01.

As for U21A G45U G63A G113C, the “polymerase ribozyme fitness (log ratio)” value was -6.02.

U21C U78A A91U: the “polymerase ribozyme fitness (log ratio)” value was -1.45.

C20U G61C C82A C124G: the “polymerase ribozyme fitness (log ratio)” value was -1.38.

Regarding U21A C56U G57C, the “polymerase ribozyme fitness (log ratio)” value is -0.599.

Turning to U21A C102G G113U A118U U129G, the “polymerase ribozyme fitness (log ratio)” value is -6.08.

Consider U21G C64U, for which the “polymerase ribozyme fitness (log ratio)” value was -2.06.

As for C22G A27C, the “polymerase ribozyme fitness (log ratio)” value was -4.37.

Take U21A A50G C72U A95G A105C: the “polymerase ribozyme fitness (log ratio)” value is -2.73.

Consider C20U G117A, for which the “polymerase ribozyme fitness (log ratio)” value was -2.72.

Take U21A C49U G63U: the “polymerase ribozyme fitness (log ratio)” value is -3.27.

Take U21A C49U: the “polymerase ribozyme fitness (log ratio)” value is -1.1.

As to C20U G120U, the “polymerase ribozyme fitness (log ratio)” value is -1.57.

With C22A U54C, the “polymerase ribozyme fitness (log ratio)” value was -4.71.

As to U21C G45C C56U U109A A111U C124G, the “polymerase ribozyme fitness (log ratio)” value is -4.35.

Regarding C20U C101U, the “polymerase ribozyme fitness (log ratio)” value is -1.97.

As for C22A G36U C88U C115A, the “polymerase ribozyme fitness (log ratio)” value was -5.17.

With C20U U96G C123G U129A, the “polymerase ribozyme fitness (log ratio)” value is -1.64.

U21C A29U C53G G61A C89U: the “polymerase ribozyme fitness (log ratio)” value is -3.59.

Regarding C22G A37U C88U, the “polymerase ribozyme fitness (log ratio)” value was -4.47.

U21A A91U: the “polymerase ribozyme fitness (log ratio)” value is -2.43.

In the case of C20U G122A, the “polymerase ribozyme fitness (log ratio)” value was -2.04.

In the case of U21C C34A C49U U78C G120A, the “polymerase ribozyme fitness (log ratio)” value was -2.92.

For the variant C22G A29C C89A G120C, the “polymerase ribozyme fitness (log ratio)” value is -6.79.

Take C22A C72G: the “polymerase ribozyme fitness (log ratio)” value was -4.59.

On to C22A C72U, for which the “polymerase ribozyme fitness (log ratio)” value is -4.98.

Turning to U21C U54C G63C C80A A105C C115U A118C, the “polymerase ribozyme fitness (log ratio)” value was -7.47.

Regarding U21A A27U U92A, the “polymerase ribozyme fitness (log ratio)” value is -7.38.

For C22A G25C G45C G48U U59A C115U, the “polymerase ribozyme fitness (log ratio)” value is -6.59.

As to U21C G48U U112C A118U, the “polymerase ribozyme fitness (log ratio)” value came to 1.11.

For the variant C20U G42U C56A C115G, the “polymerase ribozyme fitness (log ratio)” value is -3.91.

For the variant U21A A43C G63C, the “polymerase ribozyme fitness (log ratio)” value is -4.13.

As to U21A G44A G113C, the “polymerase ribozyme fitness (log ratio)” value was -3.04.

Consider U21G C62A, for which the “polymerase ribozyme fitness (log ratio)” value was -2.26.

On to U21A A26U, for which the “polymerase ribozyme fitness (log ratio)” value was -4.35.

With U21C C56U, the “polymerase ribozyme fitness (log ratio)” value came to 0.0213.

As for C22A C31G C62U C94A G110C, the “polymerase ribozyme fitness (log ratio)” value is -6.66.

On to U21C G60C, for which the “polymerase ribozyme fitness (log ratio)” value is -0.312.

As for C20U G52C U78A C102U C124U, the “polymerase ribozyme fitness (log ratio)” value is -2.94.

Take U21C G48U C53A G117A: the “polymerase ribozyme fitness (log ratio)” value is -1.81.

For C22A C49G G69U C85U, the “polymerase ribozyme fitness (log ratio)” value was -2.28.

As to U21C A26G, the “polymerase ribozyme fitness (log ratio)” value is -2.38.

Take C20U G45U A50C G77A U78C A84U C123A: the “polymerase ribozyme fitness (log ratio)” value is -3.79.

Regarding U21C A46G C53A C98U, the “polymerase ribozyme fitness (log ratio)” value is -3.28.

C20U C98U: the “polymerase ribozyme fitness (log ratio)” value is -1.43.

On to U21A G42A A46U G60A, for which the “polymerase ribozyme fitness (log ratio)” value is -4.47.

In the case of U21A G61A C88A G110A, the “polymerase ribozyme fitness (log ratio)” value was -4.74.

Consider C22G A37U A41C C53U, for which the “polymerase ribozyme fitness (log ratio)” value was -3.91.

For U21A G42U G60C, the “polymerase ribozyme fitness (log ratio)” value was -2.45.

For C20U C73G G113U U130A U131C, the “polymerase ribozyme fitness (log ratio)” value is -3.02.

Regarding U21C G71A G93A, the “polymerase ribozyme fitness (log ratio)” value was -1.91.

On to U21A G42U C98U C104U C114G C124A, for which the “polymerase ribozyme fitness (log ratio)” value was -5.22.

Consider U21A A41U A90G, for which the “polymerase ribozyme fitness (log ratio)” value is -0.995.

Consider U21C A29G A37U G71U, for which the “polymerase ribozyme fitness (log ratio)” value is -1.56.

Take U21G U87G U133G: the “polymerase ribozyme fitness (log ratio)” value is -3.13.

For U21G C72G, the “polymerase ribozyme fitness (log ratio)” value was -1.39.

Take U21A G47C: the “polymerase ribozyme fitness (log ratio)” value was -1.67.

With C22A A26C A27U C86A U112C, the “polymerase ribozyme fitness (log ratio)” value is -6.59.

Take U21A C28U A37G G61U: the “polymerase ribozyme fitness (log ratio)” value was -4.5.

Consider C20U G44A C64U, for which the “polymerase ribozyme fitness (log ratio)” value was -2.89.

C20U G47A C49G C123A U125G: the “polymerase ribozyme fitness (log ratio)” value was -2.77.

On to C20U G57C C104A, for which the “polymerase ribozyme fitness (log ratio)” value is -2.45.

Consider U21A A24G, for which the “polymerase ribozyme fitness (log ratio)” value was -1.64.

As to C22A C34U G36U G61C A111U, the “polymerase ribozyme fitness (log ratio)” value was -6.58.

With U21A G51A G57U, the “polymerase ribozyme fitness (log ratio)” value was -2.59.
